Data: article PMC3902906

Experiments:
Assay in all cases: ITC
Conditions in all cases: ITC: 10 mM HEPES, 150 mM NaCl, pH 7.5, 25 C, 100 uM DNA into 10 uM CsoR tetramer; EMSA: same buffer, room temperature, 30 min, 6% PAGE in TBE; SEC: same buffer
[1] = target: CsoRSl R132A (Streptomyces lividans 1326) (UniProt D6EK73)
[2] = target: CsoRSl R129A (Streptomyces lividans 1326) (UniProt D6EK73)
[3] = target: CsoRSl R54A (Streptomyces lividans 1326) (UniProt D6EK73)

## CGGACAAATACCCCTGGTGGGTATATATGG (double strand) [csoR-EXT]
[1]
  Kd: 309 nM
[2]
  Kd: 134 nM
[3]
  Kd: 2060 nM
